Among the data in the supplement of paper PMC10567573 are protein stability index values, retold here.

± gives the standard deviation.

The data set can be described thus: protein stability index of a GFP-peptide fusion (GPS, HEK-293T) (PSI 1-6); higher = more stable.
Where [1] appears, read: treatment: DMSO, c terminus: a fixed tail appended.
Where [2] appears, read: treatment: MLN4924 1 uM, 8 h, c terminus: a fixed tail appended.
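Also: 24-mer peptide tiles fused after GFP, lentivirally expressed, FACS-sorted into six equal bins by GFP/DsRed ratio, decoded by Illumina sequencing, PSI is the read-weighted mean bin number.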

For DEVDDFEDFIFSHFFGDKALKKRS [PBXIP1], the protein stability index reads like this: under setting [1], 3.26 ± 0.23; under setting [2], 3.29 ± 0.39.

Regarding DEVPGSQGSQASQAPPVPGPPPGA [NR2F2], the protein stability index under setting [1] is 5.45 ± 0.23 and the protein stability index under setting [2] is 5.604 ± 0.036.

Sequence DFGFAILGFAYAKEDKIMLDDRKN [MIA2] displayed a protein stability index under setting [1] of 2.05 ± 0.26 and a protein stability index under setting [2] of 2.16 ± 0.48.

As for DFKSCPQGPQGREGLAFLVSCPEG [PWWP2B], the protein stability index came to 3.61 ± 0.15 under setting [1] and 3.75 ± 0.16 under setting [2].

Take DGLPLHFFIQTVRPKDTVMCYRVR [MYORG]: the protein stability index worked out at 2.15 ± 0.43 under setting [1] and 2.24 ± 0.31 under setting [2].

As to DIKAEPQPLSPASSSYSVSSPRSV [ATF6], the protein stability index under setting [1] is 4.61 ± 0.14 and the protein stability index under setting [2] was found to be 4.74 ± 0.44.

Regarding DKFKRPTPPPSPNTQTPVQPPPPP [CCDC6], the protein stability index by setting is: under setting [1], 5.03 ± 0.091; under setting [2], 5.12 ± 0.16.

DKKTCTKIDYCASSNHGCQHECVN [MATN2]: the protein stability index under setting [1] amounted to 4.11 ± 0.22 and the protein stability index under setting [2] worked out at 4.23 ± 0.13.

As to DKPVTGPRNKTENGLTPKKKIQVN [ATF6], the protein stability index came out at 4.81 ± 0.31 under setting [1] and 4.63 ± 0.32 under setting [2].

On to DKVLGTFEFDETSFWNSSHPRGWN [KLHDC2], for which the protein stability index was determined as 2.93 ± 0.45 under setting [1] and 3.23 ± 0.61 under setting [2].

As for DLIDRGWRRSGKYVYKPVMNQTCC [ATE1], the protein stability index runs as follows: under setting [1], 2.26 ± 0.14; under setting [2], 2.23 ± 0.23.

DMRDPTYRPLKQELQGLDYCKPTR [SPSB1]: the protein stability index is 3.76 ± 0.59 under setting [1] and 4.04 ± 0.55 under setting [2].

Regarding DNALWERDRNLLQEDKALWEEEKA [CCDC70], the protein stability index under setting [1] stood at 5.57 ± 0.32 and the protein stability index under setting [2] worked out at 5.05 ± 0.31.

Regarding DNLGYRTGYPYRYPALREKSKKYS [ADD1], the protein stability index is, setting by setting: under setting [1], 3.56 ± 0.13; under setting [2], 3.69 ± 0.1.

As for DPFDEIILFSLPPALDWDSVHVPG [PTPN9], the protein stability index reads like this: under setting [1], 2.55 ± 0.29; under setting [2], 2.6 ± 0.19.

DPGVQELEALIDTIQKQLKDHSCK [EFHC1]: the protein stability index is, setting by setting: under setting [1], 3.93 ± 0.28; under setting [2], 3.97 ± 0.25.

DPQNGFDVNNLDPDLRSLFSRAGI [WAS]: the protein stability index reads like this: under setting [1], 3.93 ± 0.3; under setting [2], 3.81 ± 0.32.

Regarding DQLTQIMRTGQNTWESKNILAVSF [PCMTD1], the protein stability index under setting [1] is 2.21 ± 0.22 and the protein stability index under setting [2] stood at 1.92 ± 0.36.

As to DQWNILQTPILEGRSGPGCAVLDD [KLHL14], the protein stability index runs as follows: under setting [1], 4.37 ± 0.34; under setting [2], 4.16 ± 0.26.

Sequence DQWTPIAAMLRGQSDVGVAVFENK [KLHL13] displayed a protein stability index under setting [1] of 3.53 ± 0.2 and a protein stability index under setting [2] of 3.42 ± 0.2.

On to DRPDLSLTVLPKLQARERGEEQVE [C2CD2L], for which the protein stability index reads like this: under setting [1], 5.37 ± 0.13; under setting [2], 5.27 ± 0.16.

As to DRVILSSSTSCLMPSKLFAGLVHV [CRYL1], the protein stability index stood at 2.27 ± 0.64 under setting [1] and 2.58 ± 0.49 under setting [2].

For the sequence DSAELEPGSQTAVKNSNRYDVEMT [FBXO34], the protein stability index runs as follows: under setting [1], 5.26 ± 0.2; under setting [2], 5.29 ± 0.2.

Take DSFVVQYEDTNGQPQALLVDGDQS [TNXB]: the protein stability index under setting [1] was 5 ± 0.27 and the protein stability index under setting [2] came to 4.83 ± 0.39.

Take DSLEKTDDDKYKITLKYPHYFPVM [NLN]: the protein stability index reads like this: under setting [1], 2.73 ± 0.27; under setting [2], 2.7 ± 0.28.

In turn, DTGVFAVVNSHSLSLLGKLTISAA [SLC22A15] had a protein stability index under setting [1] of 2.5 ± 0.42 and a protein stability index under setting [2] of 2.33 ± 0.53.

As to DTLFERATNSSWVVVFKALVTTHH [SNAP91], the protein stability index by setting is: under setting [1], 2.62 ± 0.55; under setting [2], 2.71 ± 0.48.

For the sequence DTNSIAKAIKARGEVIHCKLRAMK [STX11], the protein stability index runs as follows: under setting [1], 2.82 ± 0.29; under setting [2], 2.89 ± 0.23.

On to DVADDFENYHKLRRSSSKCIHDHH [NETO1], for which the protein stability index is, setting by setting: under setting [1], 3.85 ± 0.15; under setting [2], 4.15 ± 0.11.

Turning to DVLRGNDETIGFEDILNDPSQSEV [POMP], the protein stability index reads like this: under setting [1], 5.13 ± 0.092; under setting [2], 5.21 ± 0.17.

Sequence DWFSGHLNFQIEHHLFPTMPRHNY [FADS1] had a protein stability index under setting [1] of 2.15 ± 0.48 and a protein stability index under setting [2] of 2.07 ± 0.25.

As to DWGTPRELTFSYIAFDGVVGSGGR [RTN2], the protein stability index was determined as 1.91 ± 0.22 under setting [1] and 2.43 ± 0.37 under setting [2].

Regarding DYEAGTLSFYNVTDRSHIYTFTDT [TRIM39], the protein stability index was 2.58 ± 0.38 under setting [1] and 2.69 ± 0.28 under setting [2].

Consider DYEKMFGTKCHGCDFKIDAGDRFL [PDLIM7], for which the protein stability index reads like this: under setting [1], 2.92 ± 0.31; under setting [2], 2.96 ± 0.66.

Take DYGVDPSQFSGTLMRTCERLVKEG [PPTC7]: the protein stability index was 3.72 ± 0.42 under setting [1] and 3.79 ± 0.35 under setting [2].

Consider DYSRPLHISTFINELDSGFRLLNL [TSN], for which the protein stability index by setting is: under setting [1], 2.11 ± 0.27; under setting [2], 2.21 ± 0.088.

For the sequence EAAAAEEGLRELQRSRRLCHEDVE [DAPK3], the protein stability index by setting is: under setting [1], 5.29 ± 0.23; under setting [2], 5.4 ± 0.45.

For the sequence EAAGESLEEEIRRKQILLRGKLKK [ZC2HC1C], the protein stability index was found to be 4.87 ± 0.33 under setting [1] and 4.59 ± 0.35 under setting [2].

Regarding EAAKGGHTSVVCYLLDYPNNLLSA [ANKRD17], the protein stability index was 2.02 ± 0.57 under setting [1] and 2.06 ± 0.47 under setting [2].

On to EAAMAIASLNGYRLGERVLQVSFK [ELAVL3], for which the protein stability index runs as follows: under setting [1], 2.24 ± 0.11; under setting [2], 2.27 ± 0.17.

For the sequence EAELELLRQFDLAWQYGPCTGITR [POLD4], the protein stability index is 2.85 ± 0.3 under setting [1] and 2.67 ± 0.3 under setting [2].

Turning to EDDIRPDIKDDIYDPTYKDKEGPS [SCD], the protein stability index is, setting by setting: under setting [1], 5.46 ± 0.39; under setting [2], 5.37 ± 0.34.

Take EDKIFPVPEEPPVKKLMRTSTPPP [ZBED1]: the protein stability index reads like this: under setting [1], 4.8 ± 0.27; under setting [2], 4.61 ± 0.34.

For EDLQSIIYKLEEHEEFFPAFQAFT [CEP70], the protein stability index under setting [1] came to 2.38 ± 0.18 and the protein stability index under setting [2] is 2.17 ± 0.31.

Consider EEAQPMAAPEGKRSLANGPNAGEQ [EID1], for which the protein stability index runs as follows: under setting [1], 5.16 ± 0.34; under setting [2], 5.48 ± 0.31.

With EEDIQGPTKADTEKWAEGGGHSRE [CHGB], the protein stability index under setting [1] was 5.52 ± 0.17 and the protein stability index under setting [2] turned out to be 5.38 ± 0.28.

Turning to EEELNFEKGETMEVIEKPENDPEW [NCK2], the protein stability index came to 5.53 ± 0.32 under setting [1] and 5.55 ± 0.5 under setting [2].

As to EEFIEEEDQEEEESTEGKEEGHQ [TRIM63], the protein stability index (treatment: DMSO, c terminus: native) came to 5.56 ± 0.41 and the protein stability index (treatment: MLN4924 1 uM, 8 h, c terminus: native) was determined as 5.71 ± 0.27.

Take EEGVVGGLSGGALSPLRAASDPLL [TFE3]: the protein stability index by setting is: under setting [1], 4.33 ± 0.31; under setting [2], 4.63 ± 0.4.

Turning to EELEEDIRKKLKDSGDVSNVIEKV [RHOBTB3], the protein stability index came out at 5.37 ± 0.31 under setting [1] and 5.5 ± 0.25 under setting [2].

EELSVLEVFEGREDSILGDPKKLL [MAGEA3]: the protein stability index reads like this: under setting [1], 4.38 ± 0.28; under setting [2], 4.75 ± 0.23.

Turning to EETEVLAHEIERLQMEMKEDDVSF [TRIM35], the protein stability index by setting is: under setting [1], 5.43 ± 0.2; under setting [2], 5.48 ± 0.094.

The sequence EFETLYNEHKSCEEKSVKNTSIRV [CLK3] showed a protein stability index under setting [1] of 4.59 ± 0.36 and a protein stability index under setting [2] of 4.77 ± 0.23.
